Assay results taken from patent US9993566B2, “SEZ6 modulators and methods of use” (AbbVie Stemcentrx LLC, priority 2013, dated 2018).

Key:
Format in all cases: binding
[1] = target: T1, human recombinant SEZ6-His (Homo sapiens, UniProt Q53EL9); experiment: Affinity by bio-layer interferometry (ForteBio RED) or surface plasmon resonance (Biacore 2000); settings: surface plasmon resonance
T1 construct: The cDNA fragment encoding the ECD of SEZ6 was amplified from the hSEZ6 cDNA clone; IgK signal peptide (N, cleaved yes); made in house; host or cells: HEK-293T and/or CHO-S
Procedure: Various methods were used to analyze the binding and immunochemical characteristics of selected SEZ6 modulators generated as set forth above. Specifically, a number of the antibody modulators were characterized as to affinity, binning, and cross reactivity with regard to human, cynomolgus, rat and mouse SEZ6 antigen along with SEZ6L and SEZ6L2 proteins by art-recognized methods including flow cytometry. Affinities and kinetic constants kon and koff of the selected modulators were measured using bio-layer interferometry analysis on a ForteBio RED (ForteBio, Inc.) or surface plasmon resonance using a Biacore 2000 each according to the manufacturer's instructions.
To verify the cross reactivity data above for rat SEZ6 and to determine the affinity and kinetic constants kon and koff of the selected effectors, either bio-layer interferometry analysis on a ForteBio RED (ForteBio, Inc.) or surface plasmon resonance on a Biacore 2000 (GE Healthcare) were conducted. Affinities were determined to both human recombinant SEZ6-His and rat recombinant SEZ6-His generated in Example 5.
Binding characteristics of the following humanized constructs from Example 8, hSC17.16, hSC17.17, hSC17.24, hSC17.28, hSC17.34 and hSC17.46, were analyzed in order to determine whether the CDR grafting process had appreciably altered their binding characteristics. The humanized constructs (CDR grafted) were compared with “traditional” chimeric antibodies comprising the murine parent (or donor) heavy and light chain variable domains and a human constant region substantially equivalent to that used in the humanized constructs. With these constructs surface plasmon resonance was conducted using a Biacore 2000 (GE Healthcare) to identify any subtle changes in rate constants brought about by the humanization process.

rat SEZ6 = experiment: Flow cytometry cross reactivity, RIN-m5F cells; settings: 5 μg/mL antibody
rat SEZ6, sequence (as listed by the source): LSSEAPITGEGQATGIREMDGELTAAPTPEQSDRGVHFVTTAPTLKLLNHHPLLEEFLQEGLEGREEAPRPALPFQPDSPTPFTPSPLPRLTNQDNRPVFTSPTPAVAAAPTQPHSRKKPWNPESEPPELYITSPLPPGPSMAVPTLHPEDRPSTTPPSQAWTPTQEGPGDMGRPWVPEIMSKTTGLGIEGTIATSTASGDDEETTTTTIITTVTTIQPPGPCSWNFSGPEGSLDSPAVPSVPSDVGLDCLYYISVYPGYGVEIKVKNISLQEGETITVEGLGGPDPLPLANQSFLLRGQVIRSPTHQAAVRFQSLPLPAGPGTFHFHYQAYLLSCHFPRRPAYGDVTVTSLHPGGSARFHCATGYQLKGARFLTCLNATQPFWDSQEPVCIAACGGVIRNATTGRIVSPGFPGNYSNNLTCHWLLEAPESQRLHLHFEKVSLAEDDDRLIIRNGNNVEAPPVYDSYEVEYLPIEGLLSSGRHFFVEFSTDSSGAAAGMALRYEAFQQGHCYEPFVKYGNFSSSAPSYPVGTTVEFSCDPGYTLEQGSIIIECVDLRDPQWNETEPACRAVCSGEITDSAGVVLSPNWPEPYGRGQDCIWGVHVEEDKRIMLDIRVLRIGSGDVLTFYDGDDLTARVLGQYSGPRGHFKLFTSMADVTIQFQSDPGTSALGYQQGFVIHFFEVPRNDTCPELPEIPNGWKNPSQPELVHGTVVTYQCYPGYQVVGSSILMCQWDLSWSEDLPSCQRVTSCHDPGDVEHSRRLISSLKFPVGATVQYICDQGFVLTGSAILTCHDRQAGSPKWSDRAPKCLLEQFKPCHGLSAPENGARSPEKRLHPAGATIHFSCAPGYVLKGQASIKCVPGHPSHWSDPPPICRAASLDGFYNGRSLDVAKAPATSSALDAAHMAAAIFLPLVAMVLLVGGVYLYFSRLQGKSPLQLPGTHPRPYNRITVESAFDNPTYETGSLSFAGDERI
Procedure: (§1) In this regard flow cytometry was performed using a FACSCanto II as per the manufacturer's instructions in order to confirm that selected SC17 antibody modulators can immunospecifically associate with human SEZ6 and to determine whether the same modulators cross-react with cynomolgus, rat and/or murine SEZ6 in addition to SEZ6L and SEZ6L2. More particularly modulators were tested for cross reactivity to murine SEZ6 and rat SEZ6 by flow cytometry against Neuro2a (ATCC Cat # CCL131), and RIN-m5F (ATCC cat # CRL-11605) cell lines which express mouse SEZ6 and rat SEZ6, respectively. For examining cross reactivity to cynomolgus SEZ6, yeast displaying the extracellular domain of cynomolgus SEZ6 (Boder et al, 1997) were used for flow cytometry analysis.
(§2) Briefly 1×10^5 cells per well of Neuro2a, RIN-5mF, or yeast displaying cynomolgus SEZ6 cells were incubated for 30 minutes with 50 μL PBS (2% FCS) buffer with 5 μg/mL antibody. Cells were washed twice with the same buffer and then incubated with 50 μL per sample DyLight 649 labeled goat-anti-mouse IgG, Fc fragment specific secondary diluted 1:200 in PBS buffer. After incubating for 15 minutes cells were washed twice with the PBS buffer and re-suspended in the same with DAPI for flow cytometry analysis of Neuro2a and Rin-m5F or buffer without DAPI for flow cytometric analysis of yeast cells with cSEZ6.

mouse SEZ6 = target: T2, mouse SEZ6 (Mus musculus, UniProt Q7TSK2); experiment: Flow cytometry cross reactivity, Neuro2a cells; settings: 5 μg/mL antibody
T2 construct: Neuro2a (ATCC Cat # CCL131), and RIN-m5F (ATCC cat # CRL-11605) cell lines which express mouse SEZ6 and rat SEZ6; host or cells: Neuro2a
T2 sequence (Q7TSK2 20-991): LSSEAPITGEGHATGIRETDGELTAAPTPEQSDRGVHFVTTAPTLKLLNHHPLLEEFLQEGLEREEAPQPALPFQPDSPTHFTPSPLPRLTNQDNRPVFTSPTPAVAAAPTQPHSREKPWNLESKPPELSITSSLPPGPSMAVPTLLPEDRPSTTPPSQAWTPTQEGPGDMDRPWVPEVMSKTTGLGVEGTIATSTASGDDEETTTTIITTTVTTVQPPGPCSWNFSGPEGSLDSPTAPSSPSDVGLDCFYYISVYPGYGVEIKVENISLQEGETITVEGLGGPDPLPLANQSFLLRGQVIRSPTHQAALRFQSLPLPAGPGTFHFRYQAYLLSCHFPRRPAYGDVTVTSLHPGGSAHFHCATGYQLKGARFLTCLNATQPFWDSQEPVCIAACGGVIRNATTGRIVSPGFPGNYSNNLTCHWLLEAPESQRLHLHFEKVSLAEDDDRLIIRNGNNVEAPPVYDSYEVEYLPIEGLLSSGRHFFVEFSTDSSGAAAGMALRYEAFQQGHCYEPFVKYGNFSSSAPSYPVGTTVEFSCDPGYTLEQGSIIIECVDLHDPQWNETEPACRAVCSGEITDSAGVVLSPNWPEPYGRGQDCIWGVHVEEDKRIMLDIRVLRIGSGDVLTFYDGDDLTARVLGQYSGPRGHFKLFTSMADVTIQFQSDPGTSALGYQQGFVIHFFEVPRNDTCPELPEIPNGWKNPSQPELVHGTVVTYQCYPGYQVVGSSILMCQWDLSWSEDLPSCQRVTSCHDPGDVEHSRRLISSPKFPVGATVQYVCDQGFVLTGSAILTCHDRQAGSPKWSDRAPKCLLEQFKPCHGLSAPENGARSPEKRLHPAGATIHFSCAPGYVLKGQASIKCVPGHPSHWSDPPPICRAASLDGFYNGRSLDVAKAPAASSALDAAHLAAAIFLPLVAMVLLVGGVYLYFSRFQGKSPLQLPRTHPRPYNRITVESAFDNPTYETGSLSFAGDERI
Procedure: as §1, §2

SEZ6L2 = target: T3, SEZ6L2 (Homo sapiens, UniProt Q6UXD5, INS830AYEELLDNRKLEV); experiment: ELISA cross reactivity to family member SEZ6L2; set-up: key to binds SEZ6 family member SEZ6L2 (dagger): *: antibodies that bind SEZ6 family members SEZ6L and SEZ6L2 are designated with an asterisk and/or a dagger, respectively; †: antibodies that bind SEZ6 family members SEZ6L and SEZ6L2 are designated with an asterisk and/or a dagger, respectively
T3 construct: IgK signal peptide (N, cleaved yes); made in house; host or cells: HEK-293T or CHO-S
T3 sequence (Q6UXD5 with tags, fused parts or gaps with the stated changes): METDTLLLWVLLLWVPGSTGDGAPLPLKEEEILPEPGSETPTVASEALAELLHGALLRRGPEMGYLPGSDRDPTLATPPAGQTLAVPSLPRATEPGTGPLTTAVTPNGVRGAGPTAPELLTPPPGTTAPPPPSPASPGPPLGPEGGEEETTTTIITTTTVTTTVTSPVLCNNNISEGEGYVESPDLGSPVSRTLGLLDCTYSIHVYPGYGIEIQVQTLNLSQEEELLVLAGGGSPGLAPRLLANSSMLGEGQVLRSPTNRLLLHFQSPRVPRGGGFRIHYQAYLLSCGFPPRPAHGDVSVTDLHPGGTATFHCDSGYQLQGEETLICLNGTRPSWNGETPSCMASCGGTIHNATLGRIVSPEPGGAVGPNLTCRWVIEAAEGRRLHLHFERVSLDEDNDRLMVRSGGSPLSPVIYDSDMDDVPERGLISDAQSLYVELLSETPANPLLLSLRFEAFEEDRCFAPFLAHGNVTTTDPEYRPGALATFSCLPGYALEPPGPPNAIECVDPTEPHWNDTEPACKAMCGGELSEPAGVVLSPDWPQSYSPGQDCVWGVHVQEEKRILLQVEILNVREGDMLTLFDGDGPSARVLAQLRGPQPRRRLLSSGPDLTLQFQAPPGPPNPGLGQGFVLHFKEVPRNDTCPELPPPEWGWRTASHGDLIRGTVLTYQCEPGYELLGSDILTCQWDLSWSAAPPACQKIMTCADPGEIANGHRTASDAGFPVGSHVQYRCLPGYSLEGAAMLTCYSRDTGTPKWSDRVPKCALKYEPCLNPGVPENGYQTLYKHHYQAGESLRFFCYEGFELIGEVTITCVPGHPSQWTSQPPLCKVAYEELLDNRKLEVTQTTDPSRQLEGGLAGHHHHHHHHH
Procedure: To determine cross reactivity to family member proteins, SEZ6L and SEZ6L2, an ELISA-based assay was used. Plates were coated with SEZ6, SEZ6L, or SEZ6L2 proteins at 0.2 μg/mL in PBS overnight. After washing with PBS containing 0.05% (v/v) Tween 20 (PBST), the wells were blocked with 2% (w/v) BSA in PBS (PBSA), 100 μL/well for 1 hour at room temperature. Antibody was then added at 1 μg/mL in 100 μL PBSA for 1 hour at room temperature. After washing with PBST, 100 μL/well HRP-labeled goat anti-mouse IgG diluted 1:2,000 in PBSA for 1 hour at room temperature. The plates were washed and 100 μL/well of the TMB substrate solution (Thermo Scientific 34028) was added for 15 minutes at room temperature. After developing, an equal volume of 2M H2SO4 was added to stop substrate development and analyzed by spectrophotometer at OD 450. […] As discussed above, such pan-SEZ6 antibodies are compatible with the teachings herein and may be used in conjunction with the disclosed methods.

Molecule | binding affinity compared with corresponding murine or chimeric antibody [1] | also measured
hSC17.28: humanized (CDR grafted) anti-SEZ6 antibody derived from SC17.28 (antibody, V domains shown, Humanized hSC17.28 VH; Humanized hSC17.28 VL) VH: QVQLVQSGAEVKKPGASVKVSCKASGYTFTRSYIHWVRQAPGQGLEWMGYISSGSGGTTYNQKFKGRVTSTRDTSISTAYMELSRLRSDDTAVYYCARGGVRYFDVWGQGTTVTVSS VL: EIVLTQSPDFQSVTPKEKVTITCRASQSIGTSIHWYQQKPDQSPKLLIKYASESISGVPSRFSGSGSGTDFTLTINSLEAEDAATYYCQQSNSWPLTFGQGTKLEIK | equivalent or better than the corresponding murine antibodies | 
hSC17.17: humanized (CDR grafted) anti-SEZ6 antibody derived from SC17.17 (antibody, V domains shown, Humanized hSC17.17 VH; Humanized hSC17.17 VL) VH: QVQLVQSGAEVKKPGASVKVSCKASGYTFTDYNMHWVRQAPGQGLEWMGEINPNIGGTGYNQKFKGRVTMTRDTSISTAYMELSRLRSDDTAVYYCARTYSYYSYEFAYWGQGTLVTVSS VL: EIVLTQSPATLSLSPGERATLSCSASSSVSYMHWYQQKPGQAPRLLIYDTSKLPSGIPARFSGSGSGTDFTLTISSLEPEDFAVYYCQQWSSTPPTFGQGTKLEIK | equivalent or better than the corresponding murine antibodies | 
hSC17.16: humanized (CDR grafted) anti-SEZ6 antibody derived from SC17.16 (antibody, V domains shown, Humanized hSC17.16 VH; Humanized hSC17.16 VL) VH: QVQLVQSGAEVKKPGASVKVSCKASGYTFTDYNMYWVRQAPGQGLEWMGEINPNNGGTAYNQKFRGKVTMTRDTSISTAYMELSRLRSDDTAVYYCARYDKGFDYWGQGTTVTVSS VL: DIQMTQSPSSLSASVGDRVTITCRASANINSNLVWYQQKPGKAPKLLIYAATNLADGVPSRFSGSGSGTDFTLTISSLQPEDFATYYCQHFWGTPRTFGGGTKLEIK | equivalent or better than the corresponding murine antibodies | 
SC17.42: murine anti-SEZ6 antibody (antibody, V domains shown, Murine SC17.42 VH; Murine SC17.42 VL, murine anti-SEZ6 antibody) VH: DVKLVESGGGLVRPGGSLKLSCAASGFTFSRYTMSWVRQTPEKRLEWAATINSGGSNTYYPDSVKGRFTISRDNAKNTLFLQMSSLKSEDTAMYYCTNGNHWGQGTTLTVSS VL: ENVLTQSPAIMSASPGEKVTMTCSASSSVNYMYWYQQKSSTSPKLWIYDTSKLTSGVPGRFSGSGSGNSYSLTISNMEAEDVATYYCFQGSGYPLTFGSGTKLEIK |  | cross reactivity to rat SEZ6 (rat SEZ6): cross reactive; cross reactivity to murine SEZ6 (mouse SEZ6): cross reactive
SC17.28: murine anti-SEZ6 antibody (antibody, V domains shown, Murine SC17.28 VH; Murine SC17.28 VL, murine anti-SEZ6 antibody) VH: QVHLPQSRPELVKPGASVKISCKASGYGFTRSYIHWVKQRPGQGLEWIGYISSGSGGTTYNQKFKGKASLTADNPSSTAYMHLSSLTSEDSAIYFCARGGVRYFDVWGAGTTVTVSS VL: DILLTQSPAILSVSPGEGVSFSCRASQSIGTSIHWYQQRTNGSPRLLIKYASESISGIPSRFSGSGSGTDFTLRINSLESEDIADYYCQQSNSWPLTFGAGTKLELK |  | cross reactivity to rat SEZ6 (rat SEZ6): cross reactive; cross reactivity with SEZ6L2 (SEZ6L2; ELISA, antibody 1 μg/mL): cross-reactive; binds SEZ6 family member SEZ6L2 (dagger) (SEZ6L2; mark in Table 5): SC17.6^†, SC17.28^†, SC17.103, SC17.109, SC17.119,
hSC17.46: humanized (CDR grafted) anti-SEZ6 antibody derived from SC17.46 (antibody, V domains shown, Humanized hSC17.46 VH; Humanized hSC17.46 VL) VH: QVQLVQSGAEVKKPGASVKVSCKASGYTFTSYWINWVRQAPGQGLEWIGNIFPDTTTTNYNEKFKGRVTLTRDTSISTAYMELSRLRSDDTAVYYCAREYYDGTYDAMDYWGQGTLVTVSS VL: AIQMTQSPSSLSASVGDRVTITCKASQSVNNDVAWYQQKPGKAPKLLIYYASNRYTGVPSRFSGSGSGTDFTLTISSLQPEDFATYFCQQDYSSPRTFGQGTKLEIK | equivalent or better than the corresponding murine antibodies | 
hSC17.34: humanized (CDR grafted) anti-SEZ6 antibody derived from SC17.34 (antibody, V domains shown, Humanized hSC17.34 VL) VH: QVQLVQSGAEVKKPGASVKVSCKASGYTFTDYNMDWVRQAPGQRLEWIGYIYPDNGGAGYNQKFKGRVTITVDTSASTAYMELSSLRSEDTAVYYCSRSITTAWFAYWGQGTLVTVSS VL: DIQMTQSPSSLSASVGDRVTITCKASQDINSYLSWFQQKPGKAPKSLIYRANRLVDGVPSRFSGSGSGTDYTLTISSLQPEDFATYYCLQYDEFPPTFGQGTKLEIK | equivalent or better than the corresponding murine antibodies | 
